Assay results reported in US20220135701A1 (Genentech, published 2022).
Where two headings read alike, the source gives them in different places.

Tests used:
[1] = biological target: T1, human MerTK on human macrophages (human, UniProt Q12866 21-999); assay: cell-based or functional assay
T1 sequence: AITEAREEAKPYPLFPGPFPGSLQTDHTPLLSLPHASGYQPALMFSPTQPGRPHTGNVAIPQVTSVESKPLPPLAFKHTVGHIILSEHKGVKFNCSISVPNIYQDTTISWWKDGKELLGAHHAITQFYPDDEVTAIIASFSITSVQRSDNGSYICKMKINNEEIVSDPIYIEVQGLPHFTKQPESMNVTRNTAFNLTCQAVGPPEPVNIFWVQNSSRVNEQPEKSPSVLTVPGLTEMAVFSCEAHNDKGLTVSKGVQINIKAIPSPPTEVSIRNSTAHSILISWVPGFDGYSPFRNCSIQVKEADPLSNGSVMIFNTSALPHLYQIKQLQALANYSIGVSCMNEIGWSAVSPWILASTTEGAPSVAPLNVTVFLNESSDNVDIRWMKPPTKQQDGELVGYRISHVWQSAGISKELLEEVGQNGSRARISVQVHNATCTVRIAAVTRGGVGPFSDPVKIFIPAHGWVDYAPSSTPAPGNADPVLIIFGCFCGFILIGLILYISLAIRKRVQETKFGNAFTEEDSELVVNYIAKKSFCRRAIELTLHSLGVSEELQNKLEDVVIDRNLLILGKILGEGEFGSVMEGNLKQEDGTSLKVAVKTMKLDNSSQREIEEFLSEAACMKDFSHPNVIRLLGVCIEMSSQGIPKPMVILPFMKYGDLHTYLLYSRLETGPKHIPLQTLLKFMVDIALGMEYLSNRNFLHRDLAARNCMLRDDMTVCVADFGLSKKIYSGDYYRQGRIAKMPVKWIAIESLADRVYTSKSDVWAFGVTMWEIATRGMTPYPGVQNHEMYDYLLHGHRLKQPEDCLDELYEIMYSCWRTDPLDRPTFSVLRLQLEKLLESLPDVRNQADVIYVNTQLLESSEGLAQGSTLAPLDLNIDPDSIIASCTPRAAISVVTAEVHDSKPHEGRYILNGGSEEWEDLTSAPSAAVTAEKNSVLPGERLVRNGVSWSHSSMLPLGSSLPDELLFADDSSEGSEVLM

[2] = biological target: T1, human MerTK on human macrophages; assay: cell-based or functional assay; remark: listed apart in the source
[3] = biological target: T2, mouse MerTK on mouse macrophages (mouse, UniProt Q60805 19-994); assay: cell-based or functional assay
T2 sequence (looked up): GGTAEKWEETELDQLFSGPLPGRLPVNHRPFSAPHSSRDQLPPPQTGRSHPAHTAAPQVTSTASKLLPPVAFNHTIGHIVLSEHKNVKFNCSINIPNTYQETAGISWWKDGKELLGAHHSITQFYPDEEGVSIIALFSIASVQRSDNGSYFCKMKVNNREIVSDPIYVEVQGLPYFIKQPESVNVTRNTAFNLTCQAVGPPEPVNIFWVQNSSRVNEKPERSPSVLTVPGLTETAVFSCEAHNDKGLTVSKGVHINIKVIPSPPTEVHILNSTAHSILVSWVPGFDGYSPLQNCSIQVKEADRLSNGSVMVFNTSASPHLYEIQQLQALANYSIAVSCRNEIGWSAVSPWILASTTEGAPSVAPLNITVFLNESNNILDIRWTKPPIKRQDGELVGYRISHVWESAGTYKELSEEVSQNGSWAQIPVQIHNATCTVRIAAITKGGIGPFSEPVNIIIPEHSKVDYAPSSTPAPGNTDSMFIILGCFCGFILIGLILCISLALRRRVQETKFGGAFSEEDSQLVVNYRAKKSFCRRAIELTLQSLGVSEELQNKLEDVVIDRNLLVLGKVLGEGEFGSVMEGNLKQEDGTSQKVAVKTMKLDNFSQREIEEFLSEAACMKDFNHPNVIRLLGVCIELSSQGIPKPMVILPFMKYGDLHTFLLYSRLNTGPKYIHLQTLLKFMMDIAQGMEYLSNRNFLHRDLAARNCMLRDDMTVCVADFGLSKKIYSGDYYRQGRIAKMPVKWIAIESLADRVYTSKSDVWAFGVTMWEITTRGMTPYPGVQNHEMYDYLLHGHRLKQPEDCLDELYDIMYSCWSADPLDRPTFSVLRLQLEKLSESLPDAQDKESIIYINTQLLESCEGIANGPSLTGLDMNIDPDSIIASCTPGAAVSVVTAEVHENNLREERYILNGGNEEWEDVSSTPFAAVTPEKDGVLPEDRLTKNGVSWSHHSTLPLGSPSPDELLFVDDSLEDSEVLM

rat MerTK = biological target: T3, rat MerTK (rat, UniProt P57097 23-496, limits assumed); assay: SPR BIAcore T200, Ab captured, 37C
T3 construct: Soluble analyte in SPR
T3 sequence (looked up): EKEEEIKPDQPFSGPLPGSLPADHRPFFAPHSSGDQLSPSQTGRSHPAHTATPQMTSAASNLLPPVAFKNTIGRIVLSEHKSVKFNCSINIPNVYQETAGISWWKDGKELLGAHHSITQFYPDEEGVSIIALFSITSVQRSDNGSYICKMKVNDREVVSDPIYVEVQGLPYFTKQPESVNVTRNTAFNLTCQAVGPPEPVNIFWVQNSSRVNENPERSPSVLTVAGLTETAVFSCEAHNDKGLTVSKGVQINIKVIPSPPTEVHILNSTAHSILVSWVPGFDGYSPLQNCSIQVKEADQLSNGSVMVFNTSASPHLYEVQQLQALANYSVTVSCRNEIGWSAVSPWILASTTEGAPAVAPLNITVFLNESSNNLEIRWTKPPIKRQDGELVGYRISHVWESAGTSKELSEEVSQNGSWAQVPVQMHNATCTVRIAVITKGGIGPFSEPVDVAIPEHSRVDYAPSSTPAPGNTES
Procedure: Each rabbit and humanized antibody was subjected to a binding assay to determine its affinity to MerTK derived from various species.
All binding affinity determinations were obtained using Surface Plasmon Resonance (SPR) measurements from a BIAcore™-T200 instrument. Briefly, each rabbit or humanized antibody was captured to achieve approximately 100 RU (Response Units). Then, 3-fold serial dilutions of MerTK from various species (0.4 nM to 100 nM) diluted in HBS-EP buffer (0.01M HEPES pH 7.4, 0.15M NaCl, 3 mM EDTA and 0.05% v/v surfactant P20) was injected into the BIAcore™-T200 instrument at 25° C. or 37° C. with a flow rate of 30 μl/min. Association rates (kₒₙ) and dissociation rates (koff) were calculated using a simple one-to-one Langmuir binding model (BIAcore T200 evaluation software version 2.0). The equilibrium dissociation constant (KD) was calculated as the ratio koff/kₒₙ.

IC50 (nM), efferocytosis by human macrophages, Average (3 Donors) [1]: 0.41 nM
IC50 (nM), efferocytosis by human macrophages, Donor A [1]: 0.42 nM
IC50 (nM), efferocytosis by human macrophages, Donor B [1]: 0.53 nM
IC50 (nM), efferocytosis by human macrophages, Donor C [1]: 0.27 nM
Max Inhibition (%), efferocytosis by human macrophages, Average (3 Donors) [1]: 69%
Max Inhibition (%), efferocytosis by human macrophages, Donor A [1]: 76%
Max Inhibition (%), efferocytosis by human macrophages, Donor B [1]: 73%
Max Inhibition (%), efferocytosis by human macrophages, Donor C [1]: 60%
IC50 (nM), efferocytosis by human macrophages, Average (3 Donors) [2]: 0.41 nM
IC50 (nM), efferocytosis by mouse macrophages, Average [3]: 0.91 nM
Kd (rat MerTK): 3.2 nM
B1: h10F7.v16 (antibody, V domains shown)
VH: EVQLVESGGGLVQPGGSLRLSCAVSGFSLSGYAMSWVRQAPGKGLEYIGVISSSGSSYYPSWAKGRFTISKDNSKNTLYLQMGSLRAEDMAVYYCARVQFYVGYAVYGYGIIDRLDLWGQGTLVTVSS
VL: DIVLTQSPDSLAVSLGERATINCQSSKSVYNNNWLSWYQQKPGQPPKLLIYRASTLESGVPDRFSGSGSGTDFTLTISSLQAEDVAVYFCAGGYSSSSSANAFGGGTKVEIK
notes: Humanized, human IgG1; also called 10F7 Fully Humanized; 10F7 Humanized polished mAb
